Positions count from the first letter of the chain named. Numbers in names are those of the source.
B1: S84D variant of PD1B244 (antibody, V domains shown)
VH: QVQLVQSGAEVKKPGSSVKVSCKASGGTFSSYAISWVRQAPGQGLEWMGGIIPIFDTANYAQKFQGRVTITADESTSTAYMELDSLRSEDTAVYYCARPGLAAAYDTGSLDYWGQGTLVTVSS
VL: EIVLTQSPATLSLSPGERATLSCRASQSVRSYLAWYQQKPGQAPRLLIYDASNRATGIPARFSGSGSGTDFTLTISSLEPEDFAVYYCQQRNYWPLTFGQGTKVEIK
notes: Kabat position 82a; also called PD1 S84D variant; PD1H170 S84D
B2: S75D variant of PD1B244 (antibody, V domains shown)
VH: B1 VH with S75D, D84S
VL: B1 VL
notes: Kabat position 74; also called PD1 S75D variant; PD1H170 S75D
B3: S88D variant of PD1B244 (antibody, V domains shown)
VH: B1 VH with D84S, S88D
VL: B1 VL
notes: Kabat position 84; also called PD1 S88D variant; PD1H170 S88D
B4: A88D variant of TIMB337 (antibody, V domains shown)
VH: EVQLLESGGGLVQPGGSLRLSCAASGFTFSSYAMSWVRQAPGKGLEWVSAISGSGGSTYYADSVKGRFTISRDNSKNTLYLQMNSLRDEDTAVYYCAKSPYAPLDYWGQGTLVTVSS
VL: B1 VL with R30N, S31D, R91G, N92G, Y93H, W94A, L96I
notes: Kabat position 84; also called TIM3 A88D variant; TM3H24 A88D
B5: S75D variant of TIMB337 (antibody, V domains shown)
VH: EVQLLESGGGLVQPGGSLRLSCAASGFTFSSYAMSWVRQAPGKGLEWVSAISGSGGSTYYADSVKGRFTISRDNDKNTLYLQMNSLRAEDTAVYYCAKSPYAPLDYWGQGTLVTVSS
VL: B1 VL with R30N, S31D, R91G, N92G, Y93H, W94A, L96I
notes: Kabat position 74; also called TIM3 S75D variant; TM3H24 S75D
B6: N84D variant of TIMB337 (antibody, V domains shown)
VH: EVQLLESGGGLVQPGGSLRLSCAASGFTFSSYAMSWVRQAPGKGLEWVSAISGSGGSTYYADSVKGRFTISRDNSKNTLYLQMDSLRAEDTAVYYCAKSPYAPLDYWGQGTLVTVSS
VL: B1 VL with R30N, S31D, R91G, N92G, Y93H, W94A, L96I
notes: Kabat position 82a; also called TIM3 N84D variant; TM3H24 N84D

What follows are binders tested against T1, human PD1 antigen (human, UniProt Q15116 25-167, limits assumed) (assay: Ag Binding column; PD1 SPR).
T1 construct: Injected as analyte (100 nM-0.4 nM) in the ProteOn SPR assay; construct not described; also called CD279
T1 sequence (Q15116 25-167 limits assumed): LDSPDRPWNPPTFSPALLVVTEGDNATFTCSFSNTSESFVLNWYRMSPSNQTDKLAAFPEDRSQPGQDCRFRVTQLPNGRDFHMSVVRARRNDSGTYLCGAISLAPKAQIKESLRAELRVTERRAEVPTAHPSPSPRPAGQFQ

Binding result, binds:
B1
B2
B3

What follows are binders tested against T2, Biotinylated human TIM3-Fc fusion from R&D systems (human, UniProt Q8TDQ0 22-200, biotinylated (site not stated)) (assay: Ag Binding column; TIM3-Fc ELISA).
T2 construct: Bought reagent; also called CD366; not shown: Fc part of the bought fusion
T2 sequence (looked up): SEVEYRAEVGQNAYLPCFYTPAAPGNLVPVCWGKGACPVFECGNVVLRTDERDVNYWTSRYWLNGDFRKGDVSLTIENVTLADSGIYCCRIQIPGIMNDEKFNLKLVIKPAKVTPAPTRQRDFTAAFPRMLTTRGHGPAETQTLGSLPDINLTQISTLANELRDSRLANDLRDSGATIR

Binding result, binds:
B4
B5
B6
